{"source": "the Human Domainome abundance scans (Beltran et al. 2025)", "parents": {"B1": {"name": "Retinoic acid receptor RXR-alpha, residues 132 to 208; numbered along this chain, P19793 (parent)", "chain": "KHICAICGDRSSGKHYGVYSCEGCKGFFKRTVRKDLTYTCRDNKDCLIDKRQRNRCQYCRYQKCLAMGMKREAVQEE"}}, "note": "± gives the uncertainty stated by the source."}
{"variants_of": "B1", "experiment": "abundance fitness (aPCA) (normalised: wild type 0, dead -1); higher = more abundant; growth selection in yeast, the domain comes from the species named", "details": "Homo sapiens"}
{"variant": "F27S", "abundance fitness": "0.004 ± 0.31"}
{"variant": "C40H", "abundance fitness": "-0.09 ± 0.077"}
{"variant": "C40T", "abundance fitness": "-0.643 ± 0.082"}
{"variant": "C40R", "abundance fitness": "-0.659 ± 0.053"}
{"variant": "A66Y", "abundance fitness": "-0.036 ± 0.036"}
{"variant": "A66P", "abundance fitness": "-0.713 ± 0.064"}
{"variant": "M67Q", "abundance fitness": "-0.017 ± 0.036"}
{"variant": "Y38I", "abundance fitness": "-0.041 ± 0.067"}
{"variant": "Y58M", "abundance fitness": "-0.062 ± 0.045"}
{"variant": "Y58G", "abundance fitness": "-0.028 ± 0.036"}
{"variant": "Y58E", "abundance fitness": "0.043 ± 0.045"}
{"variant": "Y58V", "abundance fitness": "-0.311 ± 0.037"}
{"variant": "L36W", "abundance fitness": "-0.028 ± 0.037"}
{"variant": "R71K", "abundance fitness": "0.043 ± 0.034"}
{"variant": "R71N", "abundance fitness": "0.015 ± 0.038"}
{"variant": "R71W", "abundance fitness": "-0.056 ± 0.036"}
{"variant": "R71H", "abundance fitness": "-0.007 ± 0.033"}
{"variant": "R30I", "abundance fitness": "-0.352 ± 0.07"}
{"variant": "R30T", "abundance fitness": "-0.124 ± 0.041"}
{"variant": "R30C", "abundance fitness": "-0.41 ± 0.061"}
{"variant": "R30V", "abundance fitness": "-0.353 ± 0.038"}
{"variant": "T37C", "abundance fitness": "0.074 ± 0.051"}
{"variant": "T37A", "abundance fitness": "0.026 ± 0.037"}
{"variant": "T37Q", "abundance fitness": "0.059 ± 0.049"}
{"variant": "T37W", "abundance fitness": "-0.051 ± 0.041"}
{"variant": "T37D", "abundance fitness": "0.082 ± 0.058"}
{"variant": "G17H", "abundance fitness": "-0.053 ± 0.089"}
{"variant": "G17S", "abundance fitness": "-0.029 ± 0.033"}
{"variant": "G17A", "abundance fitness": "-0.106 ± 0.03"}
{"variant": "E22Q", "abundance fitness": "-0.094 ± 0.043"}
{"variant": "E22R", "abundance fitness": "-0.002 ± 0.031"}
{"variant": "A5I", "abundance fitness": "0.055 ± 0.084"}
{"variant": "A5F", "abundance fitness": "0.171 ± 0.065"}
{"variant": "C46L", "abundance fitness": "-0.378 ± 0.044"}
{"variant": "F28D", "abundance fitness": "-0.57 ± 0.088"}
{"variant": "F28N", "abundance fitness": "-0.653 ± 0.16"}
{"variant": "F28L", "abundance fitness": "-0.316 ± 0.039"}
{"variant": "F28E", "abundance fitness": "-0.289 ± 0.048"}
{"variant": "F28M", "abundance fitness": "0.024 ± 0.064"}
{"variant": "S11D", "abundance fitness": "-0.014 ± 0.036"}
{"variant": "S11H", "abundance fitness": "-0.019 ± 0.035"}
{"variant": "D45C", "abundance fitness": "-0.049 ± 0.055"}
{"variant": "L47D", "abundance fitness": "-0.072 ± 0.055"}
{"variant": "L47A", "abundance fitness": "0.005 ± 0.035"}
{"variant": "L47F", "abundance fitness": "0.011 ± 0.061"}
{"variant": "R33I", "abundance fitness": "0.004 ± 0.034"}
{"variant": "R33S", "abundance fitness": "-0.074 ± 0.028"}
{"variant": "R33F", "abundance fitness": "-0.033 ± 0.034"}
{"variant": "H2N", "abundance fitness": "-0.001 ± 0.062"}
{"variant": "V74N", "abundance fitness": "-0.064 ± 0.037"}
{"variant": "V74R", "abundance fitness": "-0.03 ± 0.032"}
{"variant": "V74I", "abundance fitness": "-0.017 ± 0.035"}
{"variant": "C59G", "abundance fitness": "-0.861 ± 0.085"}
{"variant": "C59P", "abundance fitness": "-0.753 ± 0.12"}
{"variant": "C59W", "abundance fitness": "-0.427 ± 0.091"}
{"variant": "K29N", "abundance fitness": "0.027 ± 0.053"}
{"variant": "G68M", "abundance fitness": "-0.26 ± 0.046"}
{"variant": "G68W", "abundance fitness": "-0.302 ± 0.056"}
{"variant": "G68D", "abundance fitness": "-0.06 ± 0.047"}
{"variant": "G68S", "abundance fitness": "-0.108 ± 0.029"}
{"variant": "N43V", "abundance fitness": "0.013 ± 0.037"}
{"variant": "N43K", "abundance fitness": "0.1 ± 0.052"}
{"variant": "R41K", "abundance fitness": "0.026 ± 0.05"}
{"variant": "R41T", "abundance fitness": "0.035 ± 0.029"}
{"variant": "R41G", "abundance fitness": "0.095 ± 0.04"}
{"variant": "R41V", "abundance fitness": "-0.01 ± 0.031"}
{"variant": "L65C", "abundance fitness": "0.044 ± 0.047"}
{"variant": "L65R", "abundance fitness": "-0.111 ± 0.032"}
{"variant": "L65D", "abundance fitness": "-0.133 ± 0.048"}
{"variant": "L65F", "abundance fitness": "-0.036 ± 0.056"}
{"variant": "I3W", "abundance fitness": "-0.404 ± 0.071"}
{"variant": "I3K", "abundance fitness": "-0.144 ± 0.048"}
{"variant": "K14D", "abundance fitness": "0.018 ± 0.045"}
{"variant": "R10M", "abundance fitness": "-0.099 ± 0.034"}
{"variant": "R10L", "abundance fitness": "-0.131 ± 0.024"}
{"variant": "K1M", "abundance fitness": "-0.067 ± 0.05"}
{"variant": "K1C", "abundance fitness": "-0.185 ± 0.053"}
{"variant": "K1W", "abundance fitness": "-0.341 ± 0.076"}
{"variant": "K1T", "abundance fitness": "-0.435 ± 0.051"}
{"variant": "A73L", "abundance fitness": "-0.027 ± 0.026"}
{"variant": "K70Q", "abundance fitness": "-0.01 ± 0.042"}
{"variant": "K70L", "abundance fitness": "0.01 ± 0.034"}
{"variant": "K70M", "abundance fitness": "-0.034 ± 0.042"}
{"variant": "K70N", "abundance fitness": "0.061 ± 0.079"}
{"variant": "K70E", "abundance fitness": "-0.074 ± 0.04"}
{"variant": "G13M", "abundance fitness": "-0.042 ± 0.052"}
{"variant": "G13Q", "abundance fitness": "-0.009 ± 0.054"}
{"variant": "G13P", "abundance fitness": "-0.118 ± 0.074"}
{"variant": "G13K", "abundance fitness": "0.084 ± 0.056"}
{"variant": "V18S", "abundance fitness": "-0.328 ± 0.034"}
{"variant": "D49R", "abundance fitness": "-0.183 ± 0.04"}
{"variant": "D49F", "abundance fitness": "-0.109 ± 0.24"}
{"variant": "D49T", "abundance fitness": "-0.07 ± 0.093"}
{"variant": "Y16D", "abundance fitness": "0.046 ± 0.035"}
{"variant": "Y16H", "abundance fitness": "-0.031 ± 0.035"}
{"variant": "Y16N", "abundance fitness": "-0.089 ± 0.031"}
{"variant": "D9L", "abundance fitness": "-0.708 ± 0.045"}
{"variant": "D9S", "abundance fitness": "-0.137 ± 0.028"}
{"variant": "Q75L", "abundance fitness": "-0.031 ± 0.028"}
{"variant": "Q75K", "abundance fitness": "-0.047 ± 0.05"}
{"variant": "Q75F", "abundance fitness": "-0.039 ± 0.034"}
{"variant": "Q75N", "abundance fitness": "-0.052 ± 0.037"}
{"variant": "Q75M", "abundance fitness": "0.043 ± 0.036"}
{"variant": "Q75R", "abundance fitness": "0.003 ± 0.031"}
{"variant": "Q75E", "abundance fitness": "0.073 ± 0.05"}
{"variant": "Y19H", "abundance fitness": "-0.068 ± 0.041"}
{"variant": "Y19S", "abundance fitness": "-0.067 ± 0.029"}
{"variant": "G8Q", "abundance fitness": "0.043 ± 0.045"}
{"variant": "T39I", "abundance fitness": "0.099 ± 0.052"}
{"variant": "T39Q", "abundance fitness": "-0.033 ± 0.046"}
{"variant": "T39Y", "abundance fitness": "0.006 ± 0.093"}
{"variant": "T39V", "abundance fitness": "0.05 ± 0.03"}
{"variant": "T31M", "abundance fitness": "0 ± 0.038"}
{"variant": "R53W", "abundance fitness": "0.006 ± 0.044"}
{"variant": "R53D", "abundance fitness": "0.002 ± 0.041"}
{"variant": "R53Y", "abundance fitness": "0.007 ± 0.036"}
{"variant": "R53M", "abundance fitness": "-0.065 ± 0.044"}
{"variant": "R53S", "abundance fitness": "-0.076 ± 0.029"}
{"variant": "R53C", "abundance fitness": "-0.063 ± 0.04"}
{"variant": "E72S", "abundance fitness": "0.034 ± 0.078"}
{"variant": "E72V", "abundance fitness": "0.16 ± 0.25"}
{"variant": "G26A", "abundance fitness": "0.002 ± 0.033"}
{"variant": "G26C", "abundance fitness": "-0.077 ± 0.041"}
{"variant": "G26L", "abundance fitness": "-0.132 ± 0.027"}
{"variant": "C7Y", "abundance fitness": "-0.917 ± 0.08"}
{"variant": "C24G", "abundance fitness": "-0.945 ± 0.046"}
{"variant": "C24S", "abundance fitness": "-1 ± 0.054"}
{"variant": "C4P", "abundance fitness": "-0.99 ± 0.1"}
{"variant": "C4A", "abundance fitness": "-0.895 ± 0.063"}
{"variant": "C4L", "abundance fitness": "-0.999 ± 0.076"}
{"variant": "I48R", "abundance fitness": "-0.02 ± 0.031"}
{"variant": "I48V", "abundance fitness": "0.051 ± 0.033"}
{"variant": "I48K", "abundance fitness": "0.094 ± 0.13"}
{"variant": "I6H", "abundance fitness": "-0.731 ± 0.072"}
{"variant": "I6N", "abundance fitness": "-0.439 ± 0.048"}
{"variant": "I6K", "abundance fitness": "-0.881 ± 0.098"}
{"variant": "I6C", "abundance fitness": "0.008 ± 0.048"}
{"variant": "K44H", "abundance fitness": "-0.086 ± 0.078"}
{"variant": "K44S", "abundance fitness": "-0.011 ± 0.035"}
{"variant": "K44R", "abundance fitness": "-0.019 ± 0.03"}
{"variant": "S20L", "abundance fitness": "0.05 ± 0.026"}
{"variant": "S20Y", "abundance fitness": "-0.025 ± 0.03"}
{"variant": "S20M", "abundance fitness": "-0.027 ± 0.035"}
{"variant": "S20W", "abundance fitness": "0.045 ± 0.029"}
{"variant": "K50M", "abundance fitness": "0.043 ± 0.065"}
{"variant": "K50E", "abundance fitness": "-0.077 ± 0.052"}
{"variant": "K50G", "abundance fitness": "0.015 ± 0.031"}
{"variant": "M69V", "abundance fitness": "-0.319 ± 0.038"}
{"variant": "M69L", "abundance fitness": "-0.036 ± 0.028"}
{"variant": "G23P", "abundance fitness": "-0.126 ± 0.03"}
{"variant": "G23H", "abundance fitness": "-0.089 ± 0.032"}
{"variant": "G23F", "abundance fitness": "-0.424 ± 0.038"}
{"variant": "E76L", "abundance fitness": "0.01 ± 0.028"}
{"variant": "E76T", "abundance fitness": "-0.049 ± 0.032"}
{"variant": "E76W", "abundance fitness": "-0.052 ± 0.053"}
{"variant": "E76M", "abundance fitness": "-0.036 ± 0.042"}
{"variant": "R51C", "abundance fitness": "-0.053 ± 0.052"}
{"variant": "R51A", "abundance fitness": "0.007 ± 0.039"}
{"variant": "V32H", "abundance fitness": "-0.064 ± 0.032"}
{"variant": "V32E", "abundance fitness": "0.026 ± 0.032"}
{"variant": "V32T", "abundance fitness": "0.024 ± 0.029"}
{"variant": "Q57T", "abundance fitness": "-0.065 ± 0.044"}
{"variant": "Q57C", "abundance fitness": "-0.037 ± 0.048"}
{"variant": "Q57R", "abundance fitness": "0.003 ± 0.031"}
{"variant": "Q57D", "abundance fitness": "0.05 ± 0.057"}
{"variant": "H15F", "abundance fitness": "-0.064 ± 0.037"}
{"variant": "H15V", "abundance fitness": "-0.098 ± 0.026"}
